Our source for the Km, kcat and kcat/Km values is article PMC9908901, “Identification of a tomato UDP-arabinosyltransferase for airborne volatile reception” (Nature Communications, 2023).

What all share (experiment): steady-state kinetics, HPLC-MS of glycoside product
What all share (assay type): biochemical, Solanum lycopersicum

Substrate in series [1]: CC/C=C\CCO[C@@H]1O[C@H](CO)[C@@H](O)[C@H](O)[C@H]1O
As to conditions: UDP-arabinose fixed as donor, 50 mM potassium phosphate pH 7.5, 30 °C. From the text: (§1) steady-state kinetics, HPLC-MS of glycoside product on UGT91R1

Substrate in series [2]: O=c1ccn([C@@H]2O[C@H](COP(=O)(O)OP(=O)(O)O[C@H]3OC[C@@H](O)[C@H](O)[C@H]3O)[C@@H](O)[C@H]2O)c(=O)[nH]1
As to conditions: HexGlc fixed as acceptor, 50 mM potassium phosphate pH 7.5, 30 °C.
Description: as §1

Substrate in series [3]: O=c1ccn([C@@H]2O[C@H](COP(=O)(O)OP(=O)(O)O[C@H]3OC[C@H](O)[C@H](O)[C@H]3O)[C@@H](O)[C@H]2O)c(=O)[nH]1
As to conditions: HexGlc fixed as acceptor, 50 mM potassium phosphate pH 7.5, 30 °C.
Description: as §1

B1: UGT91R1 (Solanum lycopersicum) (protein)
chain: MAENGKKLHIAVFPWLAFGHMIPYLELSKLIAQKGHKISFISTPRNIDRLPKLPPNLTPFLNFVKLPMPHVEKLPENAEATIDLPYEQVKYLKLAQDALQESMSKFIEDSDIDFILFDFTSYWVPSIASKFNIPSGYFSIFIAAFLGFTGPVPGLNNDYEIRMTPEEYTVTPKWVPFETTVAFKLFEVSRIFEASMKGEEENIADIVRYYRSVENCDFLLVRSCSEFEPEWLKVVGDIHRKPVFPVGQLPTTPYEDDSTKIDAWREIKLWLDKQEKGKVIYVAFGSEAKPSQNELTELSLGLELSGLPFFWVLRIKRGESDDELIQLPEGFEERTKGRGIVCTSWAPQLKILSHDSVGGFLTHSGWSSVVEAIQFEKSLVLLTFLADQGINARLLEEKKMAYSIPRNDQDGSFTRDSVAESLNLVLVKEEGFIYREKIKEMKDLFCDKKRQNNYVENLLSFLQDYEKIKA
notes: full length, synthetic cDNA in pET15b, E. coli BL21(DE3), HisTrap purified
The term Km denotes the substrate concentration at which the rate is half of its maximum. The term kcat denotes the maximal rate divided by the concentration of active sites. The term kcat/Km denotes the turnover number divided by the Michaelis constant. Regarding B1, in series [1], the Km is 5.9 ± 0.5 µM, the kcat worked out at 0.33 ± 0.009 s⁻¹ and the kcat/Km came out at 57000 ± 5000 M⁻¹ s⁻¹. In series [2], the Km was 603 ± 75 µM, the kcat came out at 1.8 ± 0.1 s⁻¹ and the kcat/Km amounted to 3000 ± 400 M⁻¹ s⁻¹. Besides, in series [3], the Km was determined as 38 ± 4 µM, the turnover number (kcat) is 1.9 ± 0.1 s⁻¹ and the kcat/Km worked out at 51000 ± 5000 M⁻¹ s⁻¹.
